The conditions of the data set: Escherichia coli (strain K12), pH 7.8, 25 °C, Urea, phosphate 58 mM, transition: 3, whole UniProt chain shown.

Consider one protein from FireProtDB (doi:10.1021/bi00213a031).

“And” between values parts separate entries of the source, which are not always exact repeats. Equal entries are not always repeated.

B1: Tryptophan synthase alpha chain wild type, P0A877 (protein)
chain: MERYESLFAQLKERKEGAFVPFVTLGDPGIEQSLKIIDTLIEAGADALELGIPFSDPLADGPTIQNATLRAFAAGVTPAQCFEMLALIRQKHPTIPIGLLMYANLVFNKGIDEFYAQCEKVGVDSVLVADVPVEESAPFRQAALRHNVAPIFICPPNADDDLLRQIASYGRGYTYLLSRAGVTGAENRAALPLNHLVAKLKEYNAAPPLQGFGISAPDQVKAAIDAGAAGAISGSAIVKIIEQHINEPEKMLAALKVFVQPMKAATRS
Regarding B1, under “Absorbance”, the denaturant m value was 2.8 kcal/mol/M and 1.3 kcal/mol/M; the “denaturant midpoint (higher = more stable)” value is 2.5 M and 3.9 M; the unfolding free energy was 6.8 kcal/mol and 5.1 kcal/mol. Besides, where the note is “CD”, the denaturant m value was 2.5 kcal/mol/M and 1.2 kcal/mol/M; the “denaturant midpoint (higher = more stable)” value was 2.5 M and 4 M; the unfolding free energy was 6.2 kcal/mol and 4.6 kcal/mol.
